B1: 40 bp S1/S2 duplex (dsDNA)
DNA 1: ACCGAATTCTGACTTGCTAGGACATCTTTGCCCACGTTGA
DNA 2: TCAACGTGGGCAAAGATGTCCTAGCAAGTCAGAATTCGGT

Tests used:
[1] = target: LacI (UniProt P03023); details: CITED F24; cited from earlier work
[2] = test system: EcoRI E111Q E111Q; details: CITED F17; cited from earlier work
[3] = test system: EcoRI; details: CITED F17; cited from earlier work
[4] = test system: RNA polymerase holoenzyme (Escherichia coli); details: CITED; cited from earlier work
[5] = target: Mlh1-Pms1 (Saccharomyces cerevisiae, UniProt P38920;P14242 P38920:1-769,P14242:1-873); experiment: EMSA; 25 mM Hepes pH 7.6, 50 mM NaCl, RT; QD/antibody labelling did not disrupt binding; details: tags: FLAG inserted after T448 or Y499 of Mlh1 and/or HA after D565 of Pms1, anti-tag quantum dots; chain copies: heterodimer (stated); label: 5'-32P
Sequence of Mlh1-Pms1 (P38920 whole entry, chain 1 of 2): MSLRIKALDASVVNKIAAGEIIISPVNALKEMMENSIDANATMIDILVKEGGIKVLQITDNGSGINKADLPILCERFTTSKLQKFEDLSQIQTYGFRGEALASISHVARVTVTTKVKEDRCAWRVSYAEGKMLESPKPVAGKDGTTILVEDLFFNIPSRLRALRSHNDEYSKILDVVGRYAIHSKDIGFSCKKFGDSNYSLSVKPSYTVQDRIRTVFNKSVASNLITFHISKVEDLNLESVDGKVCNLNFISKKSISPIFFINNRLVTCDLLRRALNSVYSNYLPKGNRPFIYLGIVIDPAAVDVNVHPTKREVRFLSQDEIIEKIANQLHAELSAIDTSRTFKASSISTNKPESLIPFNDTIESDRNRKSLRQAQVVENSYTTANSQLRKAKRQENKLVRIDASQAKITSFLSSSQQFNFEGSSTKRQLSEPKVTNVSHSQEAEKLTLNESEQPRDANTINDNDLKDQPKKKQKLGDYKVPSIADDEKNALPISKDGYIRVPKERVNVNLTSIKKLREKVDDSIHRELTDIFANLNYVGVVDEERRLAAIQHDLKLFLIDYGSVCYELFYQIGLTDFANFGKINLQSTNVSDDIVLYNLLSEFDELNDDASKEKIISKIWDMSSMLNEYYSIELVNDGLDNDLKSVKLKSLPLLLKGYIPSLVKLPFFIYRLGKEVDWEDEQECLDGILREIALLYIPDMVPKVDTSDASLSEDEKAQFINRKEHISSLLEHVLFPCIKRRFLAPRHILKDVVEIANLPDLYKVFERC
Sequence of Mlh1-Pms1 (P14242 whole entry, chain 2 of 2): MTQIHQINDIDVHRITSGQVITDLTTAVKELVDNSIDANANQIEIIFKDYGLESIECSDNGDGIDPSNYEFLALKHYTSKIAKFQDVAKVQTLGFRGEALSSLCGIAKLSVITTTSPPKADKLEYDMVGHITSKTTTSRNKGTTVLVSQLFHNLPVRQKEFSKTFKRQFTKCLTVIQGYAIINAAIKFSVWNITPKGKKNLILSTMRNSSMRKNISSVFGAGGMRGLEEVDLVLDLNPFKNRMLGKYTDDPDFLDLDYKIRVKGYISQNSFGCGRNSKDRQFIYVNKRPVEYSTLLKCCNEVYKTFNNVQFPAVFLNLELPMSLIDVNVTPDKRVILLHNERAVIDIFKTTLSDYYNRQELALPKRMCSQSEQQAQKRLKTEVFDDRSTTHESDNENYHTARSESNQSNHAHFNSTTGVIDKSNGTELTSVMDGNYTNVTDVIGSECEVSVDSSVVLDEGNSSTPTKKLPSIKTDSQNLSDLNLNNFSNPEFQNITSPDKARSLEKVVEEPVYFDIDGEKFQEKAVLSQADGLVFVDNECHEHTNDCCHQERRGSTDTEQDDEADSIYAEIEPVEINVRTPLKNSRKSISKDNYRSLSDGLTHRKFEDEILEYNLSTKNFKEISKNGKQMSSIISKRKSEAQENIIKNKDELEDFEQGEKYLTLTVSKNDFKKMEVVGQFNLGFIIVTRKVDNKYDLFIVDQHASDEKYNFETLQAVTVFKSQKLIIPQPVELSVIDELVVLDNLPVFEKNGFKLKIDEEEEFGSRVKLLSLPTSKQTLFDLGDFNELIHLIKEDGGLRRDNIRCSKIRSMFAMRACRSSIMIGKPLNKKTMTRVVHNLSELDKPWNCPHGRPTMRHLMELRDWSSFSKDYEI
Protocol: Ensemble characterization of Mlh-Pms1 DNA-binding activity. […] Samples were loaded on 4% (w/v) non-denaturing polyacrylamide gels containing 0.5×TBE and electrophoresed at 130 V for 1 hour at RT. Gels were dried on 3mM Whatman paper and visualized by Phosphorlmaging. Analysis was done using ImageJ.

Sequence of LacI (P03023 whole entry): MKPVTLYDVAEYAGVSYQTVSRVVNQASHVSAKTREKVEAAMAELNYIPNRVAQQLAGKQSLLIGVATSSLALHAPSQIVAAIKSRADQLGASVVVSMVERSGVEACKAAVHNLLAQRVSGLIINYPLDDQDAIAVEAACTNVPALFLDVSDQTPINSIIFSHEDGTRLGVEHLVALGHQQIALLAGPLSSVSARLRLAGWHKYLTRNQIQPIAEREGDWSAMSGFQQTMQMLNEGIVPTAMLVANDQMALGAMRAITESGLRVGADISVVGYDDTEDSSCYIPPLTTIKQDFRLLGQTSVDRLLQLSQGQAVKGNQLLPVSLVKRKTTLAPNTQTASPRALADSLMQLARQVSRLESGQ

| Molecule | Kd [2] [pM] | Kd [4] [pM] | further results |
| --- | --- | --- | --- |
| nonspecific DNA | 4.8 |  | Kd [1]: > 1000 pM |
| EcoRI cognate site DNA | 0.0025 |  | Kd [3]: 6.7 pM |
| lambda PR promoter |  | 10 |  |
| lambda PL promoter |  | 100 |  |
| B1 |  |  | binding result [5]: binds |
